These results are taken from PMC7142922.

This data set has as its target T1, TyrR (Escherichia coli DH5alpha) (UniProt P07604).
T1 sequence: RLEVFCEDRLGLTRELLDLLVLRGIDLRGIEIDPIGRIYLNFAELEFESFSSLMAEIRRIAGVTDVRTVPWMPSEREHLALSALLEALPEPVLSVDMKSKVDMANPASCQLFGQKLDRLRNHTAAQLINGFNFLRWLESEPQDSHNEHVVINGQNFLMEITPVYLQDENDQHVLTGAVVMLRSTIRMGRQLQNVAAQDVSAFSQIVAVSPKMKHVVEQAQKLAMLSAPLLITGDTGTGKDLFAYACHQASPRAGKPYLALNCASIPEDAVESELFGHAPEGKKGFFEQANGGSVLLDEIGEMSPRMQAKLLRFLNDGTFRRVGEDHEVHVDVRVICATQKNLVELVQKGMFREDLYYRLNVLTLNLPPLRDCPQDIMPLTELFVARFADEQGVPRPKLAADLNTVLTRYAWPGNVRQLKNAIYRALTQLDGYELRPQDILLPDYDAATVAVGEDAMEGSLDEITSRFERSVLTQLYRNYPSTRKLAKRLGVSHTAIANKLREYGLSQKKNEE
As to the kind of experiment: EMSA. Conditions: TyrR EMSA: 50 mM Tris-HCl pH 7.8, 50 mM NaCl, 3 mM Mg acetate, 0.1 mM EDTA, 0.1 mM DTT, 25 ug/mL BSA, 0.1 mM Phe, 0.1 mM ATP, ~15 nM DNA, 37 C 30 min, 2% …. Background: A gel shift assay detects complexes by their altered migration in electrophoresis.

For the sequence “CTGCAGCACTATCACTCTTTTGTCTTGGTAAGAATAATGGTATGTGACTGCGAATGCACCTGCTTTGTGCAGGGGTGATGACGAGTTGCGTAAAAAGAAAGCACTTGTAAACCCTTTTAGCATTACTCACTTTATTTTGCATAGCATGTGATGTGCGGAGAAATCTTAGCAGTGAGCAGACCAATAAATAGAATATTCAGAACGGTGTTATTTTATTGACATCGTCAGCGGGGGAGGCGTTTAATTTATATTCGGATGTCGTAAAGCTTAA (double strand) [deltaTB fragment without TyrR boxes (274 bp)]”, the binding entry is listed as “no binding”.
